Data reported in the DeepSol protein solubility set.

Assay: soluble on expression in E. coli; label from the status in PepcDB or PDB records

Soluble on expression in E. coli, not soluble:
MGSDKIHHHHHHMSETELRKRQAQFTRELHGDDIGKKTGLSALMSKNNSAQKEAVQKYLRNWDGRTDKDAEERRLEDYNEATHSYYNVVTDFYEYGWGSSFHFSRFYKGESFAASIARHEHYLAYKAGIQRGDLVLDVGCGVGGPAREIARFTGCNVIGLNNNDYQIAKAKYYAKKYNLSDQMDFVKGDFMKMDFEENTFDKVYAIEATCHAPKLEGVYSEIYKVLKPGGTFAVYEWVMTDKYDENNPEHRKIAYEIELGDGIPKMFHVDVARKALKNCGFEVLVSEDLADNDDEIPWYYPLTGEWKYVQNLANLATFFRTSYLGRQFTTAMVTVMEKLGLAPEGSKEVTAALENAAVGLVAGGKSKLFTPMMLFVARKPENAETPSQTSQEATQ, MGSDKIHHHHHHMSFISKGAKIGENLKIGRNVVIEDGVVIGNNVMIGHNVVIRDGTIVGDNCVIFDGTVLGKLPFKSAISAVTEEKEFPPLKIGNGVTIGANCVIYRGSVLEDFVFVGDLVVIREDVKIGPYTVIGKGVTVENRTTIGRYVKIETNAYITALSTIEDYCFIAPEVTFTNDNFLGRTEERKKFFKGPTLKKGARIGANATILPGVVVGEDALVAAGSVVTRDVPDRKIVMGIPARVVRDVPEEQLLDNQSYYKEESS, MGSDKIHHHHHHMSFTSLPLTEINHKLPARNIIESQWITLQLTLFAQEQQAKRVSHAIVSSAYRKAEKIIRDAYRYQREQKVEQQQELACLRKNTLEKMEVEWLEQHVKHLQDDENQFRSLVDHAAHHIKNSIEQVLLAWFDQQSVDSVMCHRLARQATAMAEEGALYLRIHPEKEALMRETFGKRFTLIIEPGFSPDQAELSSTRYAVEFSLSRHFNALLKWLRNGEDKRGSDEY, MGSDKIHHHHHHMSHVSLKDVQVLAPNFKRRLSGVTSTIVQLIPVQNRLGQKVGTIGPGLPPHLPHVRFRDLWRLWQNGPSGGPRIWHARRNLEMLPGIFMRDVLRMKVKLLFTSAAQRRHSAYTRFLISKMDAVVATSTRSGSFLEVPHRVVMHGVDTELFHPATGPEDTIAATGLPGHYLLGCFGRVRHQKGTDLFVRAMIELLPHYPQWTAVVSGRVTAEHKAFGDTLKADVAAAGLTDRIIFQGEVDDIKPWYRRLTLYVAPSRNEGFGLTPLEAMASETAVVASNAGAYEEMIVTGETGWVVGAGDYASLRDAIKTYLADPALAKAHASAGLAHVRSTFPLEKEATCLGEVYEALQRG, MGSDKIHHHHHHMSIFFLNNGIMNILQEYSVLNAKVIIYEENGIGYYKVNEPNLDQNEIEILNSILEYIYSTPSVPNIEETVVKILKNKGISDQGIIEKIIYYLRKRIGYDELTVPLADPYVEEIECKGFSYPVTVVHRIVTRFPRLYTNIILEQEDHVLKVIEKLANKADKPVSIAKPYLEFSLPEGHRVAATVSREVSLPGSTFDIRKFPLKPISPISLIKNESISSLMLAYIWFLLDYKPFFLIIGSTGSGKTTLLNSILSMINPFFKVITIEDTPEINIIHDNWIRFFARQSISSQFEVSLMDLAKLSLRYRPDYLVIGEIRGKEIEALVHASASGHGSLATFHAGNPHEALTRLLSLLNKDVAKLFLQNLWGIIVLGTLRDRNGNIRRIIRSIYEIVYTRGKLRFRPVLRWSFSSNTFMPNNIDDLIKRSYRISYISKTYEIPISEITKEISNRVKTLNNFVSNNILDLEEFSVYLKKISQGDKVETKAI, MGSDKIHHHHHHMSIICLALAGCAVEKTEVRTPTFDEQLRPAPPSYANGSIWQASTTGLAVDHKARSRGDIITVLIVEQASASKEATTDTERKAEVSASVPYLMGLEKSSTLFSKLTNANPNNLLGASTNSKYEGSGATTRKENLLATMTAKITDVLPNGNFLIEGRRNVKVNNEDQILVLQGTIRPRDVSPDNTISSTMIADARISYTGNGVISDRQRPGWLMNILDYIWPF, MGSDKIHHHHHHMSILEVRGIEKTYSGKRILKAVSFDLESGKLTVLGGLNGIGKSTLIKMMSGDIRPDSGEIVFDGHHVELRSIVEARRIGLSAVYQEYMLVPDLTVAENIFLGSGKFTISRKKMNSEASRLLSKFGLSFDPSSKVSSLSSDEQALLEFAAAVFSEPKVLMIDDLFSVLQTESRKRLLQMIEVIKNKGTAVLVVTTDPDLMLMADHLLFMDESGVEYLPCPIERGAILERMGASSDFSILPAEGELLIEISNLAGSGQDLSLKRGEVLNIFCESGELVRAFTRAMIRQDPFTDNSVPLFREAKSFFDRFSSRSSSTPAEKYFCSNLKNTGLVSQVMLKKSGSFKSSKSLKKSFILNKESVVSVKSFLAGLERIPGFSGLVSEEDKKLSQLRFDACDLYVFVRPLLGLDPVSVNALSTVLQEIVNRSKAAVIISDEAGSSMLSTRKMRSSE, MGSDKIHHHHHHMSINFDLNDLQAFRAVVENGSFRKAAESVRITQPALSRRIEKLESALNVKLFERTTRKVSLTTVGRAFLPQVERILDDLDIALMTIGEVGSTRMGSVTIACVPSAAYYFMPQVISAFREDYPKIRVKVLDASANEVNSAVALGEADFGVSFSGNLAPEVDFELLLQERYVMACRRDHSLAIRESVSWEEMYSHDYIALDITSGNRLVLDQALARSRPHKESICETRHVTTMIGLVEAGLGVAAVPSIAMPMTAHPFLVSVPLVEPEVIRNVGLIKRRGRTLTPAALELEQLVRKMPFRSAGN, MGSDKIHHHHHHMSIRIGNAPCSWGVEFADDPRNPTWRSVLKDCAEAGYKGIELGPVGFMPEDPVELGEALAEHDLDLIGGVVFRAYHDPAAWEDVVDATHRTARALRAHGAQHLVLIDSISPRRAPTAGRAAEAEQMDKAEWTAYRNRIAESARIGAEEYGLTVGIHAHAAGFMDFEPELERLLSEVDESLLKICFDTGHHSYAGFDPVAFMKRHVGRISYMHFKDIDPKVKAEVIANRTGFYEACGQGIFCNLGLGDVDFPAVRQVLLEAGFAGWCTVEQDCDPTLDPDPVGDALKNREYLETIGFN, MGSDKIHHHHHHMSIYNSIGKQYSQTRVPDIRIVNAIINLLNLPKGSVIADIGAGTGGYSVALANQGLFVYAVEPSIVMRQQAVVHPQVEWFTGYAENLALPDKSVDGVISILAIHHFSHLEKSFQEMQRIIRDGTIVLLTFDIRLAQRIWLYDYFPFLWEDALRFLPLDEQINLLQENTKRRVEAIPFLLPHDLSDLFAAAAWRRPELYLKAEVRAGISSFALANQDLVEKGLELLTADLNNGEWIRKYGEIHHLQEIDIGYRFIYTTLDK, MGSDKIHHHHHHMSIYNSIGLHYSKTRVPDIRIVNKIIDLLNLPKNSIIADIGAGTGGYSLALANKGFLVNAIEPSLVMQKQAVEHPQVKWFTGYAENLPLLDNSVDTVVSILAIHHFSHLPKAFQEMHRIIKNGAIILLTFDIRLAQKIWLYDYFPFLWEDALQFLPLNEQINLIQINTKRRVEAIPLLLPYDLSDLFAAAGWRRPELYLQAEVRAGISSLALANQDLVDQGVKLLTADLSSEKWRKQYGDIHNLTEIDIGYRFIHTTLNN, MGSDKIHHHHHHMSLFDHKITELKQLIHKKEIKISDLVDESYKRIQAVDDKVQAFLALDEERARAYAKELDEAVDGRSEHGLLFGMPIGVKDNIVTKGLRTTCSSKILENFDPIYDATVVQRLQDAEAVTIGKLNMDEFAMGSSTENSAYKLTKNPWNLDTVPGGSSGGSAAAVAAGEVPFSLGSDTGGSIRQPASFCGVVGLKPTYGRVSRYGLVAFASSLDQIGPITRTVEDNAFLLQAISGVDKMDSTSANVDVPDFLSSLTGDIKGLKIAVPKEYLGEGVGKEARESVLAALKVLEGLGATWEEVSLPHSKYALATYYLLSSSEASANLARFDGIRYGYRTDNADNLIDLYKQTRAEGFGNEVKRRIMLGTFALSSGYYDAYYKKAQKVRTLIKKDFEDVFEKYDVIVGPTTPTPAFKIGENTKDPLTMYANDILTIPVNLAGVPGISVPCGLADGLPLGLQIIGKHFDESTVYRVAHAFEQATDHHKAKPEL, MGSDKIHHHHHHMSLLKVQNLTKEFPLGFFGKERLKAVDDVSFEIERSRIVSLIGESGSGKTTVGKLILKLIRPSSGQILLNGRDITQIKGRELREYYRKVQGVFQDPFSSFNPIYKIDRVLDMVFEEFFPDTPASERRTKMEEVIASVGMNPREILGKYPHQLSGGQLQRILIARTLLLNVELLIADEIISMLDASTRVDILNLLGDLRERGMSVIFITHDLSLGYYISDETFIMYRGNIVEMGDTEKVFHNPIHPYTKMLLESVPEIDRKWDLSKRFIPELVSSSNAPCKYYDRCPIRDERCLVQKPAMVEVEENHKVLCLKAGD, MGSDKIHHHHHHMSLLVRAAALTNYCEVARAGGLDPLRMMFDAGISPSVLREPDLMIQVDRFGRLLQTSATLSGNESFGLSMAESRLLSNLGPVGMLIRDQATLRDALGMLMRYQSILNGAKSLAVDECGGRVIIREVLIAGSAHQPTRQRVELALGVMVRLIRQLIKPDWQPQRVCFEHPAPRDLSTHQRFFGPNVAFNCDFNGIVCAKSDLDARNPWADPAMARYAQRLIDESAAARQTTMLEDVRRTILLLLPGGRCSVEQVAENLGVVCRTVQRRLAEQGQSFSSVVNDIRVELAMRHVVESDRPFTEVATLLGFSAPSGFSRWYQTQFGCSPKESRAASAAVGERVTETPSPARSSPTVRPLSRG, MGSDKIHHHHHHMSLPIIKVHWLDHSRAFRLLWLLDHLNLEYEIVPYKRDANFRAPPELKKIHPLGRSPLLEVQDRETGKKKILAESGFIFQYVLQHFDHSHVLMSEDADIADQINYYLFYVEGSLQPPLMIEFILSKVKDSGMPFPISYLARKVADKISQAYSSGEVKNQFDFVEGEISKNNGYLVDGKLSGADILMSFPLQMAFERKFAAPEDYPAISKWLKTITSEESYAASKEKARALGSNF, MGSDKIHHHHHHMSLPYKRWHYFNLIKNSLQKGCLKQQQTLTATTLKRNTIMTVIKQEDFIQSICDAFQFISYYHPKDYIDALYKAWQKEENPAAKDAMTQILVNSRMCAENNRPICQDTGIATVFLKVGMDVQWDADMSVEEMVNEGVRRAYTWEGNTLRASVLADPAGKRQNTKDNTPAVIHMSIVPGDKVEVTCAAKGGGSENKSKLAMLNPSDNIVDWVLKTIPTMGAGWCPPGILGIGIGGTPEKAVLMAKESLMSHIDIQELQEKAASGAELSTTEALRLELFEKVNALGIGAQGLGGLTTVLDVKILDYPTHAASKPIAMIPNCAATRHVEFELDGSGPVELTPPRVEDWPDLTYSPDNGKRVDVDKLTKEEVASWKTGDVLLLNGKILTGRDAAHKRLVDMLDKGEELPVDFTNRLIYYVGPVDPVGDEIVGPAGPTTATRMDKFTRQMLEQTDLLGMIGKSERGAATCEAIADNKAVYLMAVGGAAYLVAKAIKSSKVLAFPELGMEAIYEFEVKDMPVTVAVDSKGESIHATAPPQWQAKIGIIPVKS, MGSDKIHHHHHHMSLSHNRHKKLIEMVQTDGEVRIRDLMVHFNVSEETARRDIKQLEQDGLVVRVHGGAVATQQPKLLTISSRAISELAEKNVIAEIALGLLKPGQNLFFGGGSTVLALARRISMLPEMRIVTNMVDTAIAASEGRRHRVVLLGGDFNGDYRVVTGFAALRTLREQQIDIAFIGVNAVHPTLGVFDHEQGGQELAATLAEQARKITVLADHSKFGRSARYRTLPHSAIATIITDQQPEPHVLTAIEGAGADVLYPPQNPS
